One block for each binder: values may come before it.
Legend:
[1] = molecular target: T1, human CLDN4 (Claudin-4) expressed by human cancer cell lines (Capan-2, HPAF-II, MCF7, HT-29, SW480, 22Rv1, DU … (human, UniProt O14493 1-209)); test: FCM on live MCF7 cells (express both CLDN3 and CLDN4), 5 µg/ml
T1 construct: Endogenous protein on cell lines; MCF7 is said to express both CLDN3 and CLDN4; also called CLDN4 expressed in breast cancer cells, colorectal cancer cells and prostate cancer cells
T1 sequence: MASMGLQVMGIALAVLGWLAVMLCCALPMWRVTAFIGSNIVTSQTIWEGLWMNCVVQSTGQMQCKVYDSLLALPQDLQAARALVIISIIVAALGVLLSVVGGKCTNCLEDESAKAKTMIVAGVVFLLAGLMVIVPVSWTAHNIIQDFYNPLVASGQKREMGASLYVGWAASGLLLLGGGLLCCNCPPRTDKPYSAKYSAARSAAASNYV
Method: (§1) Pancreatic cancer cell line Capan-2 which expresses CLDN4 was used as the evaluation cell of cKM3900, and a breast cancer cell line MCF7 which expresses both of CLDN3 and CLDN4 was used as the evaluation cell of cKM3907. The cells were cultured for 3 to 4 days and peeled off using 0.02% EDTA solution (manufactured by Nacalai Tesque) to recover the resulting cells. The thus recovered cells were washed with PBS and, in order to avoid nonspecific adsorption of antibodies, blocked using BSA-PBS at ice temperature for 30 minutes. The cells were dispensed at 1 to 5×10⁵ cells/100 μl BSA-PBS into a 96-well U bottom plate and centrifuged (1,500 rpm, 5 minutes), the supernatant was removed and then 5 μg/ml of a negative control antibody cKM3034 (anti-FGF8 human chimeric antibody) [US 2004/0091480], an anti-CLDN4 monoclonal antibody KM3900 or KM3907 or an anti-CLDN4 human chimeric antibody cKM3900 or cKM3907 was dispensed as the primary antibody at 100 μl/well and allowed to react at ice temperature for 60 minutes. […] After washing again once with PBS and subsequently suspending in PBS, the fluorescent intensity was measured by FCM (manufactured by Beckman Coulter).

[2] = molecular target: T1, human CLDN4 (Claudin-4) expressed by …; test: FCM on live Capan-2 cells (express CLDN4), 5 µg/ml
Method: as §1

binding result [1]: binds
B1: anti-CLDN4 human chimeric antibody cKM3907 (antibody, V domains shown)
VH: QVQLQQSGPELVKPGASVKISCKASGYAISTSWMNWVKQRPGKGLEWIGRINPGDGNTNYNGKFMAKATLTADKPSSTAYMQLSSLTSEDSAVYFCTRGDRWSGAMDYWGQGTSVTVSS
VL: GNVLTQSPAIMSASPGEKVTMTCRASSSVSSSYLHWYQQKSGASPKLWIYSTSNLASGVPVRFSGSGSGTSYSLTISSVEAEDAATYYCQQYSGFPLTFGAGTKLELK
notes: Human chimeric IgG: mouse V regions of KM3907 joined to the human CH and CL of vector pKANTEX93 (WO 97/10354); also called cKM3907-93 (expression vector)

binding result [2]: binds
B2: anti-CLDN4 human chimeric antibody cKM3900 (antibody, V domains shown)
VH: EVQLQQSGPELVKPGASVKISCKASGYTFTDYYMNWVKQSHGKSLEWIGDVVPNNGVPTYNQKFKGKATLTVDKSSSTAYMELRSLTSEDSAVYYCARPHYYYAGRSGAMDYWGQGTSVTVSS
VL: QIVLTQSPAIMSASLGERVTMTCTASSTVSSTYLHWYQQKPGSSPKLWIYSTSNLASGVPARFSGSGSGTSYSLTISSMEAEDAATYYCHQYHRSPPTFGGGTKLEIK
notes: Human chimeric IgG: mouse V regions of KM3900 joined to the human CH and CL of vector pKANTEX93 (WO 97/10354); also called cKM3900-93 (expression vector)

Source: patent US20090202556A1 (Kyowa Kirin, published 2009)
